# B1: TAT-TL-MS-K fusion protein (protein)
# chain: MHHHHHHSSGLVPRGSGMKETAAAKFERQHMDSPDLGTDDDDKAMAISDPNSSSVDKLGYGRKKRRQRRRGGSTMGGYPYDVPDYAGSMLKLAALESNKIQDLEKKEGRIDDLLRANCDLRRQIDEQQKLLEKYKERLNKCISMSKKLLIEKSTQEKLSSREKSMQDRLRLGHFTTVRHGASFTEQWTDGFAFQNLVKQQEWVNQQREDIERQRKLLAKRKPPTANNSQAPSTNSEPKQRKNKAVNGAENDPFVRPNLPQLLTLAEYHEQEEIFKLRLGHLKKEEAEIQAELERLERVRNLHIRELKRINNEDNSQFKAAAVPLSLRSGTSDHPTLNERYLLLHLLGRGGFSEVYKAFDLYEQRYAAVKIHQLNKSWRDEKKENYHKHACREYRIHKELDHPRIVKLYDYFSLDTDTFCTVLEYCEGNDLDFYLKQHKLMSEKEARSIVMQIVNALRYLNEIKPPIIHYDLKPGNILLVDGTACGEIKITDFGLSKIMDDDSYGVDGMDLTSQGAGTYWYLPPECFVVGKEPPKISNKVDVWSVGVIFFQCLYGRKPFGHNQSQQDILQENTILKATEVQFPVKPVVSSEAKAFIRRCLAYRKEDRFDVHQLANDPYLLPHMRRSNSSGNLHMAGLTASPTPPSSSIITY
# B2: TAT-TL-MS-K: SEQ ID NO: 4, fusion protein with MT1-MMP cleavage site inserted 5′ to the kinase domain of TLK1B (protein)
# chain: B1 chain
# modifications: TAT-TL-MS-K fusion protein
# B3: TAT-TLK-MS fusion protein (protein)
# chain: MHHHHHHSSGLVPRGSGMKETAAAKFERQHMDSPDLGTDDDDKAMAISDPNSSSVDKLGYGRKKRRQRRRGGSTMSGYPYDVPDYAGSMVKLAALESNKIQDLEKKEGRIDDLLRANCDLRRQIDEQQKLLEKYKERLNKCISMSKKLLIEKSTQEKLSSREKSMQDRLRLGHFTTVRHGASFTEQWTDGFAFQNLVKQQEWVNQQREDIERQRKLLAKRKPPTANNSQAPSTNSEPKQRKNKAVNGAENDPFVRPNLPQLLTLAEYHEQEEIFKLRLGHLKKEEAEIQAELERLERVRNLHIRELKRINNEDNSQFKDHPTLNERYLLLHLLGRGGFSEVYKAFDLYEQRYAAVKIHQLNKSWRDEKKENYHKHACREYRIHKELDHPRIVKLYDYFSLDTDTFCTVLEYCEGNDLDFYLKQHKLMSEKEARSIVMQIVNALRYLNEIKPPIIHYDLKPGNILLVDGTACGEIKITDFGLSKIMDDDSYGVDGMDLTSQGAGTYWYLPPECFVVGKEPPKISNKVDVWSVGVIFFQCLYGRKPFGHNQSQQDILQENTILKATEVQFPVKGSVPLSLRSGTPVVSSEAKAFIRRCLAYRKEDRFDVHQLANDPYLLPHMRRSNSSGNLHMAGLTASPTPPSSSIITY
# B4: TAT-TLK-MS: SEQ ID NO: 3, fusion protein with MT1-MMP cleavage site in a presumptive loop towards the carboxy terminus (protein)
# chain: B3 chain
# modifications: TAT-TLK-MS fusion protein
# B5: TAT-TLK1B: SEQ ID NO: 2, TAT-TLK1B fusion protein without the MS cleavage site (protein)
# chain: MHHHHHHSSGLVPRGSGMKETAAAKFERQHMDSPDLGTDDDDKAMAISDPNSSSVDKLGYGRKKRRQRRRGGSTMSGYPYDVPDYAGSMVKLAALESNKIQDLEKKEGRIDDLLRANCDLRRQIDEQQKLLEKYKERLNKCISMSKKLLIEKSTQEKLSSREKSMQDRLRLGHFTTVRHGASFTEQWTDGFAFQNLVKQQEWVNQQREDIERQRKLLAKRKPPTANNSQAPSTNSEPKQRKNKAVNGAENDPFVRPNLPQLLTLAEYHEQEEIFKLRLGHLKKEEAEIQAELERLERVRNLHIRELKRINNEDNSQFKDHPTLNERYLLLHLLGRGGFSEVYKAFDLYEQRYAAVKIHQLNKSWRDEKKENYHKHACREYRIHKELDHPRIVKLYDYFSLDTDTFCTVLEYCEGNDLDFYLKQHKLMSEKEARSIVMQIVNALRYLNEIKPPIIHYDLKPGNILLVDGTACGEIKITDFGLSKIMDDDSYGVDGMDLTSQGAGTYWYLPPECFVVGKEPPKISNKVDVWSVGVIFFQCLYGRKPFGHNQSQQDILQENTILKATEVQFPVKPVVSSEAKAFIRRCLAYRKEDRFDVHQLANDPYLLPHMRRSNSSGNLHMAGLTASPTPPSSSIITY
# modifications: TAT-TLK1B fusion protein
# Assays:
# histone H3 [1] = target: histone H3
# histone H3 [2] = target: histone H3 (Homo sapiens, UniProt P68431); experiment: Kinase activity by histone H3 Ser10 phosphorylation (immunoblot); format: biochemical; conditions: in vitro, kinase buffer at 30° C; data not shown
# Protocol: In the next attempt, the MS was inserted 5′ to the kinase domain of TLK1B. The recombinant TAT-TL-MS-K protein was produced, purified, and the activity of the protein was analyzed in vitro. […] Activity of the TAT-TL-MS-K was monitored indirectly by evaluation of histone H3 Seri 0 phosphorylation. Recombinant TAT-TLK1B or TAT-TL-MS-K was reacted with histone H3 at ratios of 1:10, 1:5, or 1:1 in a kinase buffer at 30° C. Reactions were loaded onto SDS-PAGE gels, and immunoblotted against anti-Ser10 H3 (Millipore). […] The functional, MMP-sensitive TAT-TL-MS-K will be used to confirm transduction in normal and cancer cells, and the ability of TAT-TL-MS-K to sensitize cancer cells such as head and neck cancer cells to radiation.
# MT1-MMP catalytic domain = target: T1, MT1-MMP catalytic domain (Homo sapiens, UniProt P50281); experiment: In vitro cleavage by MT1-MMP catalytic domain (anti-His immunoblot); format: biochemical; conditions: for sensitivity to MT1-MMP cleavage: incubated with recombinant MT1-MMP catalytic enzyme
# T1 construct: reacted with the MT1-MMP catalytic domain (EMD Millipore) at 22° C; purchased Calbiochem / EMD Millipore
# Protocol: FIG. 3 depicts anti-His immunoblotting of TAT-TLK1B or TAT-MS-TLK1B, reacted with the MT1-MMP catalytic domain (EMD Millipore) at 22° C., as a function of time. 1.5 μg TAT-TLK1B, TAT-MS-TLK1B or TAT-TL-MS-K was reacted with 0.02 mU MT1-MMP, catalytic domain (Calbiochem) in reaction buffer containing 50 mM Tris pH 7.5, 150 mM NaCl, 5 mM CaCl2. The reactions were incubated at 22° C. for the indicated times (10, 20, 30, 60, or 120 minutes). […] Although MT1-MMP has a preference for the preferred cleavage site motif, that preference is neither strict nor absolute. Thus other proteins will be cleaved as well; what is important is the relative sensitivity of MS-containing proteins to MT1-MMP cleavage.
# rat salivary glands = conditions: delivered directly to rat salivary glands; preclinical, Sunavala-Dossabhoy 2012; cited from earlier work
# [3] = system: HNSCC cells (cell line SCC40); experiment: Protein transduction into SCC40 cells (anti-hemagglutinin immunoblot); format: cell-based; conditions: 40 μg protein, 6 hours after protein transduction
# Protocol: HNSCC cells (cell line SCC40) were cultured on rat tail type I collagen plates in DMEM/0.1% BSA for 3 days before addition of 40 μg TAT-TLK1B or TAT-MS-TLK1B. Control cells (Untreated cells, Untx) were treated with an equal volume of OPTI-MEM™ reduced serum medium—a modification of Eagle's Minimum Essential Media, buffered with HEPES and sodium bicarbonate, and supplemented with hypoxanthine, thymidine, sodium pyruvate, L-glutamine, trace elements, and growth factors. FIG. 4A depicts the results of immunoblotting the respective cell lysates with anti-(MT1-MMP catalytic domain) antibody (Millipore). The arrow at 68 kD corresponds to pro-MT1-MMP. […] The 52 kD and 55 kD proteins were products of autocatalytic cleavage of MT1-MMP. […] Active MT1-MMP is membrane-bound, and is responsible for cleaving and activating pro-MMP-2 to active MMP-2. Active MT1-MMP can also undergo autocatalytic processing. The presence of a substrate such as TAT-MS-TLK1B or TAT-TL-MS-K will decrease the MT1-MMP autocatalysis. […] In other words, the observed decrease in MT1-MMP auto-cleavage is indirect evidence that the recombinant TAT-MS-fusion protein is being cleaved as designed.
# FIG. 4B depicts results of immunoblotting the respective cell lysates with horseradish peroxidase-conjugated anti-hemagglutinin (Sigma) 6 hours after protein transduction. […]
molecule,measurement,setting,value
MT1-MMP expressed by HNSCC cell line SCC40,"MT1-MMP autoproteolytic products (52 kD and 55 kD) in SCC40 lysates, immunoblot",TAT-MS-TLK1B,The autoproteolytic products declined sharply in the presence of the TAT-MS-TLK1B
B1,"phosphorylation of histone H3 Ser10, immunoblot with anti-Ser10 H3",histone H3 [1],"TAT-TL-MS-K retained the native kinase activity, as indicated by phosphorylation of histone H3 (data not shown)"
B2,kinase activity (phosphorylation of histone H3 Ser-10),histone H3 [2],retained the native kinase activity
same,sensitivity to MT1-MMP cleavage,MT1-MMP catalytic domain,more sensitive to MT1-MMP cleavage than was TAT-TLK1B
B3,phosphorylation of histone H3 Ser-10 (kinase activity),histone H3 [1],"would not phosphorylate the TLK substrate, histone H3 Ser-10"
B4,kinase activity (phosphorylation of histone H3 Ser-10),histone H3 [2],would not phosphorylate the TLK substrate
same,sensitivity to MT1-MMP cleavage,MT1-MMP catalytic domain,sensitive to cleavage
B5,radiation-induced xerostomia,rat salivary glands,mitigate radiation-induced xerostomia
same,cleavage by MT1-MMP catalytic domain after 120 minutes,"MT1-MMP catalytic domain; 1.5 μg protein, 0.02 mU MT1-MMP, 22° C, 120 minutes",still showed substantial activity
same,sensitivity to MT1-MMP cleavage,MT1-MMP catalytic domain,"also cleaved by the enzyme, although not as rapidly"
same,transduction into SCC40 cancer cells,[3],efficiently transduced
